Measurements reported in the DeepSol protein solubility set.

Assay: soluble on expression in E. coli; label from the status in PepcDB or PDB records

Sequence	soluble on expression in E. coli
MGSDKIHHHHHHMSKTLSILVLHRVPFENVGYDQVIDHDLHQVTYLGLASPMSKLPKDLPCHKVVIEQLDLLVDSAVALTQEQGIEFDYIIGVSEYQLFDAALIRERLNIQGPKPHDVLRVRDKLVMKHQVQAAGLHVPRFFELAEVMTQELTGLQQLILKPKDGASSENVIKYADLEALRSAITSSATGIPVLDNDKNFKNFEVEEFVEGPILHLDGIVQGGVIDTFVASTYEGTCLAFAEGEALGSYQIQTEPRLMDWAQAVITALAIDSGAFHLEVIESGERLVFLEIGHRAGGANVVRTFELRTGINLHHANLATQLRLPIHRQEVNTHKSYGWFVFPGHHYDWDKCRLEGHEDIKIHHQMFEWNQLSNEQPLTKHITYQKKEVPAAGIIQGDDSIQVQNFMQRVLQYIQVQEAV	not soluble
MELRIFFDGNCPLCSAEMRQLKARDPDDHIELVDLNAENFSSRFSYIDKDYANTILHGETASGQVLLGLDVTCKAWALTGTRPWIQVLRLPLIKPLADWCYLRFAKHRYRISYLLTGKARCDSQCQLPKLEHHHHHH	soluble
MGSDKIHHHHHHMLYFQNAFSLRGTHDAIIVGIFEGHEPLVAELKQLDETLNGHLSTLVKQKQLKTEAGKITELYTFGLIETKWVLAVGLGKRSDASADTLRAGFAAVGERVKEKRMTNVTVVLPSFVSERVSEQEVARLFGESFTMGYSTIDDYKERTNLVDKSLNSVTVFHGHRPVETGIREGIAYGNGSVYAERLMSIPRTLLSPTELVTEAQALANRHGFDTETLEQKELEKLGMGGLLAASGPAENATMIVLKNKGKREEREVIGLIGAGGNGIFSPWMGGAAAVLGAMDIIGSLHSQKNVLAILPIVEQEQGQPKPMPGDVIRSYSGKTIEVDHIEAVGALLLADGITYAKELGVHSLVTVAPLAEELRSILGDKFTAAVTNDESWLKKMQEASLKSGEPIWTLPYYRPYKKRLQEESVADLRLTIGRFANCMATALFVGEFAENDPWVHLDIAGTVARARGIMVRTLAAFVLNNGERELR	not soluble
MPLSWPPEQFAFALEQMPLTENNRRILQAFLDAPEQTLTAHSLAAAANVAGGWSAANLRIGELSRKFAPVLGSLPDAGDGDPHWWRYIASGRWDGGRFYWTLRPQLKDALLTLGWQSSESLDNEAEGVSAEEARTFVEGATRQIFVNAYERNAGARAACIAHFGTVCRVCETDLVAIYGEVARGYIQVHHLRSLAEVGRQYEVNPLTDLIPVCPNCHAMLHQRRPAYTPEELRAMLGRGQHLEHHHHHH	not soluble
MQPIEFLEGGCLCGAIRYRIEGNPFDADYCHCRMCQKSIGAAFGAWMDFNVSQVTWLKGNVTEFASSDFVRRGFCAQCGCSLTYRHTEYPDYLTLTIASFDDPNLVQPNYHIYTEQQLSWLKIEDNCQRYPQARTK	soluble
MSLKIYLFKPYDVIGFGGLKNFSAGETHIQKSIFPPPIMRFFHIFNSVYGVFLYKDGNLFLPVPSDCLVKRKEESGKAKISPLEFPPLIRGDLEAYERANGFISFSDLMNKYAKNIDGFKIYLLEEFLKKESRVGITMDKERRVVRSIKEINRKEEKGLLYSQDFFRFNDGVKLAVLGEINKDIVISGKQYFRMGGEGKIVSFKHTEHINSFLEGKIKIKNGNYYKFYCLTHAYINNGIIESKIQTICIEGINFEVEWLYNGGVEYVSGYNKPFLEMLRPGSVLILKAKNEGEIQRLNQISTNVPISNIKNFLNRGWNSGIIVEGVKEGHHHHHH	soluble
MSLNYNTPKVSIVVPSLNSISYIRECIDSILNQTLKDIEILCIDANSTDGTLEVLKNYEKKDKRLRVIISDKKSYGYQMNLGIKEAKGEYLGIVESDDYIKTNMYERLYEIAKKNDCEVVKGDFYIFAYGKTEYVNVLRNSCEDIYNYKVNWNKDIRIFLGSDGINPIGIYRLDLLRTNQIKLNETPGASYQDNGLWFQIFALAKSIYFINEAFYMLRRDNPNSSVKSKEKVYCACEEYDFIRDFLKKHPDLEKTLAPICALHRFGNYMFTLERIDERYKLDFLKRFSQDFRKILKDKELDENLFGNINMQRINKIIENPVIYYYFSRGARARLQNQLVYRLGKVVVEAKSFNKIIKLPFLMLKICLEHNFEHKVYRSIVQFRPDLKLLPLECYLDYHEALVIKEHLSYKFGKLILLSFKGWYKGKIFILPFMLKKRYKEYKNKMEGHHHHHH	soluble
MGSDKIHHHHHHMRQFAKPTIVVSKCLEFDACRYNGEMIPDVTIRNLQPFVTFIPVCPEVEIGLGTPRETIRIVEEKGVNKLMQPSTREDLTGKMEQFSNKFLQTISDVDGFILKNRSPSCGTRDVKIYSGFEKAPAKGKGPGLFGGAVIKNFSHLPIEEEGRLSNFIIREHFLTRLFTIAYYKMMKRNKNMKDLVSFQSDNKYLFMAYNQVKQKELGRIIANHKNEKIEVVFENYEKTLYELFMRTPRYTSNVNVCEHIFGYFKTKLKKQEKDHFLDLIQKYKEKKIPLSSLLAILKSWALRFDEKYLLRQTYFEPYPEALVEISDSGKGRDY	not soluble
MGSDKIHHHHHHMNNQVKRRKTKAVNVGKVQVGGGAPVAVQSMTCTDTRNVRETIEQIEALEKAGCEIVRVAVPDAEAASVLGKIKKSISIPLIADIHFNHHYALMAIEQDVDGIRINPGNVGKKNIAEIVRAAKDHNTVIRIGVNAGSLEKELQEKHGGPTAHALTESALNNLAFVEDMGFDRIKLSLKSSHVPTMIDAYRLVADKTDYPLHLGVTEAGTLVTSAVKSSIGMGLLLHEGIGDTIRVSVTGSPVLEIGIAYDILRALDIRRVGPDIISCPTCGRCEIDLFGLVEQVEHSLSGMKDYMKIALMGCVVNGPGEAAEADVGIAGGRGMGLLFKKGQVIRKIREEEFVKALLQEIQEMTGE	not soluble
MGHHHHHHSHMPKNQEDSEEKGEKDEQTAKFLHKLAENGKDRGLPDCVVAQYEKNAWEATNSDEKYKSCEKCGMPPPPPIDGAKNSVVEEVCKNCETINEKPIGIESQILEKRRNEEILKRKEERKSLKRSAEESVTNSAPEKIQKKVHVKIMPRKCAPQILRRSLVPPPILTPKSAKKKLKLAENKEPDFLKALLNVTGNPV	not soluble
LRPEDFTTLLQTADFRLRLLEAIAAATRRVYICALYLENEEAGQEMLDALYRAKQRNPQLDVRVMVDWHRAQRGRIGEDQSHCNASWYREEAARRELDIPIYGVPVQTRELFGVLHLKGFVIDDTVFYSGASLNNVYLHKLDKYRFDRYHLIRSPELADAMAGFMAEQFFNDPAVFRLD	not soluble
MSNFLDLQKQRRSIYALGKTVDLSKAELVALIQNAIKQAPSAFNSQTSRALVLFGQDSQDFWNKIAYSELEKVTPAEAFAGTKAKLESFAAGVGTILLFEDQAVVRNLEENFPLYAENFQPWSEQAHGIALYAIWLALAEQNIGMSVQHYNPLVDAQVAEKYDLPTNWKMRAQIPFGSIEAPAGEKEFMADQERFKVFGDLEHHHHHH	soluble
YTIYKEPLSLAPFEKIPSPLRRGLGKVAEVFPDGMRGKSLLQRGSMTMEERYYGNARSFNFDQMKRVIPWAKKEWDHREVTAPIYAQSEHMDPVARMQHLDLFTWMRGDILVKADKINMAHSLELRVPFLDKEVFEVAETIPYDLKIANGTTKYALRKAMEQIVPPHVLHRKKLGFPVPMRHWLAGDELFGWAQDTINESMTDQYFDKAAVLAMLNEHKNGVSDHSRRLWTVLAFMIWHGIFVEHRIDPGIEKRDYPVYL	not soluble
MGSDKIHHHHHHMGNFHTMLDALLEDQEEAVLATIVQVEGSAYRKAGASMLFKKKGRRIGLLSGGCVEEDVFQRISALGDQLTSTLIPYDMRSEDDLSWGMGAGCNGIIHVHAERITQEKRRHYEKVRDCLHSGKAVTSVIKIESSHYLFLTENGHFGNWPDAPLQDIQRTVSTLHLPHFDQTTNMFIQRIEPKPRLILFGAGPDNVPLANLAADTGFSVIVTDWRPAYCTSSLFPYAYYLITAFPEQMLSEFQFFPHDAAVVATHHYQHDQTIINFLFSQNLHYIGLLGSANRTKRLLSGKHPPSHFYSPVGLKIGAEGPEEIAVSVVAEIIQTRKRVAVV	not soluble
MGSDKIHHHHHHMYKWGWTMTSSVAQLLSTPVEEVAGKEVPVLDKDFSLAEILKAVEKAKIDRAFLTEGNSIRGVLTFRDILDKIATVRTKQAYIGGLHGSSFMNEPVKYVEVGREVSHALETMANGMFTSVPVVGAGGVVEGGITRFELARLVKDLEISQDTSVRDVMRTFLVSVNLQTRILHVRQLLYEYDISVIPVMDEGRFVGVVGLDELMAIIKSFYNLARGEPKRHTPLKYVIVADAIRMRPPVVTPDASLAEAAEKMLEKRYRAVVVVDSEKPVGFTSGLELANFLLTKKSS	not soluble
